Assay results taken from PMC2909917, “Dynamic Subunit Exchange and the Regulation of Microtubule Assembly by the Stress Response Protein Human αB Crystallin” (PLoS ONE, 2010).

Target: the molecule itself
Assay: SEC; 128 µM αB crystallin alone in 20 mM tris-HCl, 160 µM MgCl2, 40 µM EGTA, pH 8.0; Biosep SEC-S4000, eluted in 20 mM tris-Cl pH 8.0 at 4°C; size from calibration proteins (apparent); subunits to polydisperse complex

B1: human αB crystallin (natural protein, UniProt P02511 1-175, looked up)
chain: MDIAIHHPWIRRPFFPFHSPSRLFDQFFGEHLLESDLFPTSTSLSPFYLRPPSFLRAPSWFDTGLSEMRLEKDRFSVNLDVKHFSPEELKVKVLGDVIEVHGKHEERQDEHGFISREFHRKYRIPADVDPLTITSSLSSDGVLTVNGPRKQVSGPERTIPITREEKPAVTAAPKK
notes: human αB crystallin, expressed from a human αB crystallin pET16b plasmid; 20 kDa on SDS-PAGE; Polydisperse complex; pET16b can add an N-terminal His tag, but purification was by anion exchange and SEC, so the protein is probably untagged (surmise); also called small heat shock protein (sHSP); source: E. coli BL21 (DE3), purified (Q Sepharose Fast Flow, Superdex 200); copies: 24
- stoichiometry N: 24 subunits
